Experiments:
[1] = target: discoidal lipid bilayer-membrane scaffold protein complex including GPCR1 transmembrane protein (human); test: Octet assay; biotinylated complex with GPCR1 captured on streptavidin through the Bir-A tag of the membrane scaffold protein (FIG. 1B)
[2] = target: control discoidal lipid bilayer-membrane scaffold protein complex without GPCR1 (empty complex); test: Octet assay; biotinylated empty complex captured on streptavidin through the Bir-A tag of the membrane scaffold protein (FIG. 1B)

Octet response [1]: 3 nm | Octet response [2]: 0.69 nm
Substance: streptavidin tethered to plates (from UniProt P22629 37-163)

— patent publication US20250313624A1
